Source: the supplement of paper PMC9170038

How the values were obtained:
MS2 coat protein [1] = test: apparent KD of MS2 coat protein, switch ON state; designed switch direction (-1 OFF switch, 1 ON switch): -1; higher = weaker reporter binding; details: FMN input: 0 or 200 uM; Eterna round: R93 (includes R88 designs)
In short: (§1)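 Apparent KD was obtained for each design as the median of normalised binding-curve fits over its clusters. RNA switches transcribed on-chip from Illumina sequencing clusters were titrated with SNAP-549-labelled MS2 coat protein (twofold steps, 0.7 or 1.5 nM to 3 µM) in 100 mM Tris-HCl pH 7.5, 80 mM KCl, 4 mM MgCl2, without or with constant ligand.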

MS2 coat protein [2] = test: apparent KD of MS2 coat protein, switch OFF state (with FMN for OFF switches, without FMN for ON switches); designed switch direction (-1 OFF switch, 1 ON switch): -1; higher = weaker reporter binding; details: FMN input: 0 or 200 uM; Eterna round: R93 (includes R88 designs)
In short: as §1

Sequence	apparent KD of MS2 coat protein (MS2 coat protein [1])	apparent KD of MS2 coat protein (MS2 coat protein [2])
CUCAUGUAAGGAUAUCAGUAGUAAAAAAAUAAAAUUACUACUGAGAAGGUACAUGAGGAUCACCCAUGUCCGGG [EX4 374: Super Stable 74]	21.7 nM	18.3 nM
CUCAUGUGAGGAUAUGUACAGAAAAAAAUGGGUGAAACUGUACAGAAGGCACAUGAGGAUCACCCAUGUGAAAA [EX4 378: S S Pseudoknot 3]	26.1 nM	21.1 nM
CUCUAGUCAGGAUAUACAAGAAAAGAAAAGAAAGAAAAGAAGUAGAAGGGACAUGAGGAUCACCCAUGUAAGAA [EteRNA is fun!]	70.4 nM	91.5 nM
CUCUAGUGAGGAUAUGCAAGAAAAGAAGAGAAAGAAAAGAAGCAGAAGGCACAUGAGGAUCACCCAUGUAAGAA [EteRNA is fun!]	32.4 nM	71.8 nM
CUCUUGUCAGGAUAUCGAAGAAAAGAAAAGAAAGAAAAGAACGAGAAGGGACAUGAGGAUCACCCAUGUAAGAA [EteRNA is fun!]	61.5 nM	67.6 nM
CUCUUGUGAGGAUAUAGAAGAAAAGAAGAGAAAGAAAAGAACUAGAAGGCACAUGAGGAUCACCCAUGUAAGAA [EteRNA is fun!]	34.3 nM	39.9 nM
CUCUUGUGAGGAUAUUGAAGAAAAGAAAAGAAAGAAAAGAACAAGAAGGCACAUGAGGAUCACCCAUGUAAGAA [EteRNA is fun!]	24.8 nM	36.5 nM
CUGCAGUAAGGAUAUACAUGAGGAUCACCCAUGUAGGAACUUACAGAACGAAACGCAUGUAGAAGGUACCAGAA [Enususge]	14.2 nM	14.3 nM
CUUAUGUGAGGAUAUCAGUAGUAAAAAAAAAAAAUUACUACUGAGAAGGCACAUGAGGAUCACCCAUGUGCCUU [EX4 323: Super Stable 23]	14.4 nM	14.2 nM
GAAAAACAUGAGGAUCACCCAUGUGAGGAUAUGAACGAAAUAAAAUAAAAAUAAAAGUUCAGAAGGCACAAAAG [Mat - Exclusion 1 - Eli mod - D12]	34 nM	69.9 nM
GAAAAACAUGAGGAUCACCCAUGUUAGGAUAUGCUAUGGAAAAUAAAAAAUAAACAUAGCAGAAGGAACAAAAG [Mat - Exclusion 1 - Eli mod - D31]	20.3 nM	36.7 nM
GAAAACAGAGGAUAUACAUAAGCUAGACGAAAGUCUAGCAAACAUGAGGAUCACCCAUGUAGAAGGCUGAAGAA [Meechl Mod]	29.2 nM	27.7 nM
GAAAACAGAGGAUAUACAUGAUUAUGACGAAAGUCAUAAAAACAUGAGGAUCACCCAUGUAGAAGGCUGAAGAA [Meechl MS2 Ex2 2]	130 nM	164 nM
GAAAACUGAGGAUAUACUUUGGGAAAAGAAAAGAUGAUGUUACAUGAGGAUCACCCAUGUAGAAGGCAGAAAAG [Mat - Exclusion 2 - Mod - D151]	25.3 nM	34.5 nM
GAAAAGUCAGGAUAUACAGAAAAAAAAACGAAAAAAAAUCUGUAGAAGGGACAUGAGGAUCACCCAUGUUAAAA [Mat - Exclusion 4 - Mayanna - D125]	46.9 nM	24 nM
GAAAAGUCAGGAUAUAUGCGAAAAAUAAAAAAAAUAAAAACAUAGAAGGGACAUGAGGAUCACCCAUGUUAAAG [Mat - Exclusion 4 - Mayanna - D135]	37.7 nM	25.4 nM
GAAAAGUGAGGAUAUAGCAAAGGUCACGAAAGUGACAAAGGCUAGAAGGCACAUGAGGAUCACCCAUGUCCAAG [Mat - Exclusion 4 - Eli mod - D99]	20.3 nM	49.9 nM
GAAAAGUGAGGAUAUGUCAAAAGUCACAAAAGUGACAAAAGACAGAAGGCACAUGAGGAUCACCCAUGUGGAAG [Mat - Exaclusion 4 - Eli mod - D52]	33.8 nM	41.1 nM
GAAAAGUGAGGAUAUGUCAAAAGUCACAAAAGUGACAAAAGACAGAAGGCACAUGAGGAUCACCCAUGUGGGAA [Mat - Exaclusion 4 - Eli mod - D50]	58.5 nM	211 nM
GAAAAGUGAGGAUAUUCGGAUAGGAAAACGAAAACCUAUCCGAAGAAGGCACAUGAGGAUCACCCAUGUGGGAA [Mat - Exaclusion 4 - Eli mod - D49]	80.3 nM	119 nM
